# From publication PMC5914118, “Exploiting the Concept of Multivalency with ^68Ga- and ^89Zr-Labelled Fusarinine C-Minigastrin Bioconjugates for Targeting CCK2R Expression” (Contrast Media & Molecular Imaging, 2018)
# Read-outs that look alike come from different tables or passages of the source. Marks after values point to notes of the source that are not given here.
# What was measured:
# [1] = tested on: A431-CCK2R/A431-mock tumour xenografted BALB/c nude mice; settings: mouse, in vivo
# Protocol: All animal experiments were conducted in compliance with the Austrian and Dutch animal protection laws and with approval of the Austrian Ministry of Science (BMWF-66.011/000604-II/3b/2012 and BMWFW-66.011/0049-WF/II/3b/2014). In vivo stability studies were conducted in 5-week-old female BALB/c mice (in-house breed, ZVTA Innsbruck, Dr. Hermann Dietrich). The biodistribution studies were performed using female 8−10-week-old athymic BALB/c nude mice (Charles River Laboratories, Sulzfeld, Germany). Tumour xenografts were induced by subcutaneous injection of 2 × 10^6 A431-CCK2R cells (receptor positive) in the right and the same amount of A431-mock (receptor negative) in the left flank. Tumours were allowed to grow until they had reached a volume of 0.3–0.6 cm^3. To evaluate the biodistribution profile nude mice (n = 4) were intravenously injected with either 1-2 MBq ^68Ga- or 0.3 MBq ^89Zr-labelled mono-, di-, and trimer (0.1–0.2 nmol). The animals were sacrificed by cervical dislocation after 1 h as well as 2 h and 4 h in case of ^68Ga- and ^89Zr-labelled trimer, followed by the collection of organs and tissue. The collected samples were measured in the gamma counter and the results were calculated as percentage of injected dose per gram tissue (% ID/g).
# [2] = format: physicochemical
# Protocol: Aliquots (50 μL) of ^68Ga- and ^89Zr-labelled mono-, di-, and trimer (10 μM) were diluted in 450 μL PBS. After adding 500 μL octanol the mixture was vortexed with 1400 rpm (MS 3 basic vortexer, IKA, Staufen, Germany) for 15 min at RT followed by centrifugation for 2 min at 4500 rpm. Subsequently, 100 μL aliquots of the organic and the aqueous layer were collected and logD values were calculated using Excel (n = 3, six replicates) after gamma counter measurement.
compound,measurement,setting,value
"CSCC[C@H](NC(=O)[C@H](Cc1c[nH]c2ccccc12)NC(=O)CNC(=O)[C@H](Cc1ccc(O)cc1)NC(=O)[C@H](C)NC(=O)[C@@H](CCC(=O)O)NC(=O)CCSC1CC(=O)N(CCC(=O)NC2CCCN(O)C(=O)C=C(C)CCOC(=O)C(NC(=O)CCN3C(=O)CC(SCCC(=O)N[C@H](CCC(=O)O)C(=O)N[C@@H](C)C(=O)N[C@@H](Cc4ccc(O)cc4)C(=O)NCC(=O)N[C@@H](Cc4c[nH]c5ccccc45)C(=O)N[C@@H](CCSC)C(=O)N[C@@H](CC(=O)O)C(=O)N[C@@H](Cc4ccccc4)C(N)=O)C3=O)CCCN(O)C(=O)C=C(C)CCOC(=O)C(NC(=O)CCN3C(=O)CC(SCCC(=O)N[C@H](CCC(=O)O)C(=O)N[C@@H](C)C(=O)N[C@@H](Cc4ccc(O)cc4)C(=O)NCC(=O)N[C@@H](Cc4c[nH]c5ccccc45)C(=O)N[C@@H](CCSC)C(=O)N[C@@H](CC(=O)O)C(=O)N[C@@H](Cc4ccccc4)C(N)=O)C3=O)CCCN(O)C(=O)C=C(C)CCOC2=O)C1=O)C(=O)N[C@@H](CC(=O)O)C(=O)N[C@@H](Cc1ccccc1)C(N)=O (stereo partly drawn) [^68Ga-labelled Trimer, metal not drawn]",Biodistribution: A431-CCK2R tumour (receptor positive),[1]; 1 h,6.07 ± 1.56 % ID/g
same,Biodistribution: A431-mock tumour (receptor negative),[1]; 1 h,2.17 ± 0.70^e % ID/g
same,Biodistribution: Blood,[1]; 1 h,3.70 ± 1.27 % ID/g
same,Biodistribution: Bone,[1]; 1 h,2.03 ± 0.88 % ID/g
same,Biodistribution: Heart,[1]; 1 h,1.60 ± 0.28^e % ID/g
same,Biodistribution: Intestine,[1]; 1 h,1.15 ± 0.28^e % ID/g
same,Biodistribution: Kidneys,[1]; 1 h,49.7 ± 10.1 % ID/g
same,Biodistribution: Liver,[1]; 1 h,3.71 ± 0.75 % ID/g
same,Biodistribution: Lung,[1]; 1 h,4.47 ± 1.50 % ID/g
same,Biodistribution: Muscle,[1]; 1 h,0.75 ± 0.15 % ID/g
same,Biodistribution: Pancreas,[1]; 1 h,1.37 ± 0.26^e % ID/g
same,Biodistribution: Spleen,[1]; 1 h,2.15 ± 0.32^e % ID/g
same,Biodistribution: Stomach,[1]; 1 h,3.17 ± 0.54 % ID/g
same,Biodistribution: A431-CCK2R tumour (receptor positive),[1]; 2 h,8.73 ± 2.65^e % ID/g
same,Biodistribution: A431-mock tumour (receptor negative),[1]; 2 h,3.18 ± 0.51 % ID/g
same,Biodistribution: Blood,[1]; 2 h,2.53 ± 0.67 % ID/g
same,Biodistribution: Bone,[1]; 2 h,2.52 ± 0.79 % ID/g
same,Biodistribution: Heart,[1]; 2 h,2.18 ± 0.31 % ID/g
same,Biodistribution: Intestine,[1]; 2 h,1.86 ± 0.33 % ID/g
same,Biodistribution: Kidneys,[1]; 2 h,59.6 ± 4.3^f % ID/g
same,Biodistribution: Liver,[1]; 2 h,4.09 ± 0.85 % ID/g
same,Biodistribution: Lung,[1]; 2 h,5.78 ± 0.92 % ID/g
same,Biodistribution: Muscle,[1]; 2 h,0.65 ± 0.14 % ID/g
same,Biodistribution: Pancreas,[1]; 2 h,1.80 ± 0.31 % ID/g
same,Biodistribution: Spleen,[1]; 2 h,2.89 ± 0.53 % ID/g
same,Biodistribution: Stomach,[1]; 2 h,3.86 ± 1.36^f % ID/g
same,Biodistribution: A431-CCK2R tumour (receptor positive),[1]; 4 h,14.44 ± 3.40^f % ID/g
same,Biodistribution: A431-mock tumour (receptor negative),[1]; 4 h,2.16 ± 0.54 % ID/g
same,Biodistribution: Blood,[1]; 4 h,1.76 ± 0.43 % ID/g
same,Biodistribution: Bone,[1]; 4 h,2.26 ± 0.41 % ID/g
same,Biodistribution: Heart,[1]; 4 h,1.51 ± 0.33^f % ID/g
same,Biodistribution: Intestine,[1]; 4 h,2.48 ± 0.59 % ID/g
same,Biodistribution: Kidneys,[1]; 4 h,172.1 ± 14.8 % ID/g
same,Biodistribution: Liver,[1]; 4 h,6.01 ± 2.54 % ID/g
same,Biodistribution: Lung,[1]; 4 h,3.75 ± 0.84^f % ID/g
same,Biodistribution: Muscle,[1]; 4 h,1.01 ± 0.37 % ID/g
same,Biodistribution: Pancreas,[1]; 4 h,3.10 ± 1.13 % ID/g
same,Biodistribution: Spleen,[1]; 4 h,2.77 ± 0.78 % ID/g
same,Biodistribution: Stomach,[1]; 4 h,13.6 ± 4.9 % ID/g
same,Distribution coefficient logD (pH 7.4),[2],−2.20 ± 0.07
"CSCC[C@H](NC(=O)[C@H](Cc1c[nH]c2ccccc12)NC(=O)CNC(=O)[C@H](Cc1ccc(O)cc1)NC(=O)[C@H](C)NC(=O)[C@@H](CCC(=O)O)NC(=O)CCSC1CC(=O)N(CCC(=O)NC2CCCN(O)C(=O)C=C(C)CCOC(=O)C(NC(=O)CCN3C(=O)CC(SCCC(=O)N[C@H](CCC(=O)O)C(=O)N[C@@H](C)C(=O)N[C@@H](Cc4ccc(O)cc4)C(=O)NCC(=O)N[C@@H](Cc4c[nH]c5ccccc45)C(=O)N[C@@H](CCSC)C(=O)N[C@@H](CC(=O)O)C(=O)N[C@@H](Cc4ccccc4)C(N)=O)C3=O)CCCN(O)C(=O)C=C(C)CCOC(=O)C(NC(C)=O)CCCN(O)C(=O)C=C(C)CCOC2=O)C1=O)C(=O)N[C@@H](CC(=O)O)C(=O)N[C@@H](Cc1ccccc1)C(N)=O (stereo partly drawn) [^89Zr-labelled Dimer, metal not drawn]",Tumour-to-organ ratio (T/O): A431-mock,[1],11.2 ± 2.3
same,Tumour-to-organ ratio (T/O): Blood,[1],7.4 ± 2.3^c
same,Tumour-to-organ ratio (T/O): Bone,[1],7.4 ± 1.2^c
same,Tumour-to-organ ratio (T/O): Heart,[1],9.8 ± 4.8
same,Tumour-to-organ ratio (T/O): Intestine,[1],12.5 ± 3.1
same,Tumour-to-organ ratio (T/O): Kidneys,[1],0.15 ± 0.06
same,Tumour-to-organ ratio (T/O): Liver,[1],10.3 ± 3.2^c
same,Tumour-to-organ ratio (T/O): Lung,[1],7.6 ± 2.9^c
same,Tumour-to-organ ratio (T/O): Muscle,[1],7.9 ± 5.3
same,Tumour-to-organ ratio (T/O): Pancreas,[1],9.2 ± 3.1^c
same,Tumour-to-organ ratio (T/O): Spleen,[1],10.5 ± 4.5
same,Tumour-to-organ ratio (T/O): Stomach,[1],3.4 ± 1.1
same,Biodistribution: A431-CCK2R tumour (receptor positive),[1]; 1 h,7.69 ± 1.34^ac % ID/g
same,Biodistribution: A431-mock tumour (receptor negative),[1]; 1 h,0.86 ± 0.22 % ID/g
same,Biodistribution: Blood,[1]; 1 h,1.17 ± 0.28 % ID/g
same,Biodistribution: Bone,[1]; 1 h,1.36 ± 0.42 % ID/g
same,Biodistribution: Heart,[1]; 1 h,1.01 ± 0.37 % ID/g
same,Biodistribution: Intestine,[1]; 1 h,0.73 ± 0.25 % ID/g
same,Biodistribution: Kidneys,[1]; 1 h,55.5 ± 10.3 % ID/g
same,Biodistribution: Liver,[1]; 1 h,0.83 ± 0.20 % ID/g
same,Biodistribution: Lung,[1]; 1 h,1.16 ± 0.28 % ID/g
same,Biodistribution: Muscle,[1]; 1 h,1.51 ± 0.70 % ID/g
same,Biodistribution: Pancreas,[1]; 1 h,0.95 ± 0.23^c % ID/g
same,Biodistribution: Spleen,[1]; 1 h,0.99 ± 0.40 % ID/g
same,Biodistribution: Stomach,[1]; 1 h,2.99 ± 1.13 % ID/g
same,Distribution coefficient logD (pH 7.4),[2],−2.83 ± 0.02
